The values that follow come from paper PMC11544220 (Scientific Reports, 2024).

The series “native MS” deals with the molecule itself. Briefly: native MS.
Series [1] addresses Stl^NT-Avi, biotinylated Stl 1-159 for the BLI sensor (Staphylococcus aureus, UniProt Q9F0J8 1-159, biotin on the Avi-tag). Briefly: BLI. On the technique in general: Biolayer interferometry detects binding as a change in optical thickness at a sensor tip.
Series [2] deals with Stl-Avi, biotinylated full-length Stl for the BLI sensor (Staphylococcus aureus, UniProt Q9F0J8 1-267, biotin on the Avi-tag). As to the kind of experiment: BLI.

A value given as a limit tells only on which side of the number the result lay.

B1: Mycobacterium tuberculosis dUTPase, wild type (MtDUT^WT) (enzyme)
chain: MSTTLAIVRLDPGLPLPSRAHDGDAGVDLYSAEDVELAPGRRALVRTGVAVAVPFGMVGLVHPRSGLATRVGLSIVNSPGTIDAGYRGEIKVALINLDPAAPIVVHRGDRIAQLLVQRVELVELVEVSSFDEAGLASTSRGDGGHGSSGGHASL
As for B1, the stoichiometry N (usually the number of molecules, sites or subunits per partner or assembly) in the series “native MS” amounted to 3 subunits in the oligomer. In addition, in series [1], the Kd (commonly the constant that tells how readily two partners part at equilibrium) was determined as 0.19 ± 0.001 nM; the koff – broadly, a measure of how fast the partners let go of each other – worked out at 0.000103 ± 0.04 s⁻¹; the kon – broadly, a measure of how fast the partners come together – is 542000 ± 0.01 M⁻¹ s⁻¹. Further, in series [2], the Kd is less than 0.001 nM, the dissociation rate constant (koff) was less than 1e-07 s⁻¹ and the kon stood at 270000 ± 0.01 M⁻¹ s⁻¹.
